Measured values from paper PMC7374170 (2020).
Values joined by “and” are separate entries in the source; they are usually repeats but may differ in a detail not shown here. Equal values may be shown once.

B1: TRIB3 (tribbles pseudokinase 3), purified protein (natural protein)
chain: MRATPLAAPAGSLSRKKRLELDDNLDTERPVQKRARSGPQPRLPPCLLPLSPPTAPDRATAVATASRLGPYVLLEPEEGGRAYQALHCPTGTEYTCKVYPVQEALAVLEPYARLPPHKHVARPTEVLAGTQLLYAFFTRTHGDMHSLVRSRHRIPEPEAAVLFRQMATALAHCHQHGLVLRDLKLCRFVFADRERKKLVLENLEDSCVLTGPDDSLWDKHACPAYVGPEILSSRASYSGKAADVWSLGVALFTMLAGHYPFQDSEPVLLFGKIRRGAYALPAGLSAPARCLVRCLLRREPAERLTATGILLHPWLRQDPMPLAPTRSHLWEAAQVVPDGLGLDEAREEEGDREVVLYG

Legend:
[1] = molecular target: B1; assay: SPR
[2] = molecular target: T1, SAH-JGZ4, stapled JGZ peptide (UniProt P00533, two units of nonnatural alkenyl amino acids S5 at the relative positions i and i + 4, cross-linked by ring-closing olefin metathesis); assay: FP
[3] = molecular target: JGZ-M4; assay: SPR
[4] = molecular target: JGZ-M15; assay: SPR
[5] = molecular target: JGZ-M2; assay: SPR
[6] = molecular target: JGZ-M1; assay: SPR
[7] = molecular target: JGZ-M10; assay: SPR
[8] = molecular target: JGZ-M6; assay: SPR
[9] = molecular target: JGZ-M12; assay: SPR
[10] = molecular target: JGZ-M11; assay: SPR
[11] = molecular target: JGZ-M13; assay: SPR
[12] = molecular target: SAH-JGZ2; assay: SPR
[13] = molecular target: T1, SAH-JGZ4, stapled JGZ peptide; assay: SPR
[14] = molecular target: T1, SAH-JGZ4, stapled JGZ peptide; assay: SPR; remark: listed apart in the source

Kd [1] [nM] | Kd [2] [nM] | Kd [3] [nM] | Kd [4] [nM] | Kd [5] [nM] | Kd [6] [nM] | Kd [7] [nM] | Kd [8] [nM] | Kd [9] [nM] | Kd [10] [nM] | Kd [11] [nM] | Kd [12] [nM] | Kd [13] | Kd [14] [nM] | Binder
5370 | – | – | – | – | – | – | – | – | – | – | – | – | – | NQALLRIVKETEFK [JMA2 peptide with the Leu-to-Val substitution]
– | 55.4 | 2470 | 1160 | 424 | 642 | 337 | 1210 | 402 | 892 | 796 | 235 | 84.1 nM and 66.1 nM | 137 | B1
1060 | – | – | – | – | – | – | – | – | – | – | – | – | – | NQALLRIIKETEFK [JMA2 peptide with the Leu-to-Ile substitution]
